# Columns and labels:
# [1] = test system: Arabidopsis thaliana T1 plants; assay: Mesotrione tolerance of transgenic Arabidopsis thaliana T1 plants (spray, bleached leaf area grade, damage score); type: in vivo; parameters: Scores: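 damage score 0-100 computed as Σ(N×S)/(T×M)×100 over grades 0-3 with higher meaning more damage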; details: for Classification and statistics of the grade of pesticide damage Grade 0 / Classification and statistics of the grade of pesticide damage Grade 1 / Classification and statistics of the grade of pesticide damage Grade 2 / Classification and statistics of the grade of pesticide damage Grade 3: number of plants in grade
# Summary of the method: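 Damage graded 0–3 from the proportion of bleached leaf area 7 days after spraying. Plants were glufosinate-selected T1 lines, 18 days after sowing, plus vector and wild-type controls. Rates: mesotrione 52.5–420, isoxaflutole 35–280, topramezone 25–200 g ai/ha, with water (0×).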
# [2] = test system: Arabidopsis thaliana T1 plants; assay: Isoxaflutole tolerance of transgenic Arabidopsis thaliana T1 plants (spray, bleached leaf area grade, damage score); type: in vivo; details: for Classification and statistics of the grade of pesticide damage Grade 0 / Classification and statistics of the grade of pesticide damage Grade 1 / Classification and statistics of the grade of pesticide damage Grade 2 / Classification and statistics of the grade of pesticide damage Grade 3: number of plants in grade;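 as to Scores: Weighted damage index from 0 to 100 where higher means more damage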
# Text: T1 transformants were initially selected from the untransformed seeds using a glufosinate selection scheme. The Arabidopsis thaliana T1 plants (AsHPPD-02) into which the AsHPPD-02 nucleotide sequence was introduced, the Arabidopsis thaliana T1 plants (AsHPPDm-F372A-02) into which the AsHPPDm-F372A-02 nucleotide sequence was introduced, the Arabidopsis thaliana T1 plants (AsHPPDm-F383W-02) into which the AsHPPDm-F383W-02 nucleotide sequence was introduced, the Arabidopsis thaliana T1 plants (AsHPPDm-F372A-F383W-02) into which the AsHPPDm-F372A-F383W-02 nucleotide sequence was introduced, the Arabidopsis thaliana T1 plants (DBN11726N) into which the control recombinant expression vector DBN11726N was introduced, and the wild-type Arabidopsis thaliana plants (CK) (18 days after sowing) were sprayed respectively with topramezone at three concentrations (100 g ai/ha (four-fold field concentration, 4×), 200 g ai/ha (eight-fold field concentration, 8×), and 0 g ai/ha (water, 0×)), isoxaflutole at three concentrations (140 g ai/ha (two-fold field concentration, 2×), 280 g ai/ha (four-fold field concentration, 4×), and 0 g ai/ha (water, 0×)), and mesotrione at three concentrations (210 g ai/ha (two-fold field concentration, […]), 420 g ai/ha (four-fold field concentration, 4×), and 0 g ai/ha (water, 0×)), to determine the tolerance of Arabidopsis thaliana to the herbicides. The degree of damage caused by the herbicide was measured for each plant according to the proportion of bleached leaf area (the proportion of bleached leaf area=bleached leaf area/total leaf area×100%) 7 days after spraying (7 DAT): the case where there is basically no bleached phenotype is defined as grade 0, the case where the proportion of bleached leaf area is less than 50% is defined as grade 1, the case where the proportion of bleached leaf area is more than 50% is defined as grade 2, and the case where the proportion of bleached leaf area is 100% grade is defined as grade 3.
# According to the method as described above in point 6 of Example 1, the aforementioned Arabidopsis thaliana T1 plants and wild-type Arabidopsis thaliana plants (CK) (18 days after sowing) were sprayed respectively with topramezone at three concentrations (25 g ai/ha (one-fold field concentration, 1×). 100 g ai/ha (four-fold field concentration, 4×), and 0 g ai/ha (water, 0×)), isoxaflutole at three concentrations (35 g ai/ha (half-fold field concentration, 0.5×). 70 g ai/ha (one-fold field concentration, 1×), and 0 g ai/ha (water, 0×)), and mesotrione at three concentrations (52.5 g ai/ha (half-fold field concentration, 0.5×), 105 g ai/ha (one-fold field concentration, 1×), and 0 g ai/ha (water, 0×)) to detect the tolerance of Arabidopsis thaliana to the herbicides.
# According to the method as described above in point 6 of Example 1, the aforementioned Arabidopsis thaliana T1 plants and wild-type Arabidopsis thaliana plants (CK) (18 days after sowing) were sprayed with topramezone at three different concentrations (i.e., 100 g ai/ha (four-fold field concentration, 4×), 200 g ai/ha (eight-fold field concentration, 8×) and 0 g ai/ha (water, 0×)), isoxaflutole at three different concentrations (i.e., 140 g ai/ha (two-fold field concentration, 2×), 280 g ai/ha (four-fold field concentration, 4×) and 0 g ai/ha (water, 0×)), and mesotrione at three different concentrations (i.e., 210 g ai/ha (two-fold field concentration, 2×), 420 g ai/ha (four-fold field concentration, 4×) and 0 g ai/ha (water, 0×)) respectively to detect the herbicide tolerance of Arabidopsis thaliana. […]
Molecule,Resistance evaluation ([1]; mesotrione 210 g ai/ha),Scores ([1]; mesotrione 210 g ai/ha),Classification and statistics of the grade of pesticide damage Grade 0 ([1]; mesotrione 210 g ai/ha),Classification and statistics of the grade of pesticide damage Grade 1 ([1]; mesotrione 210 g ai/ha),Classification and statistics of the grade of pesticide damage Grade 2 ([1]; mesotrione 210 g ai/ha),Classification and statistics of the grade of pesticide damage Grade 3 ([1]; mesotrione 210 g ai/ha),Resistance evaluation ([1]; mesotrione 420 g ai/ha),Scores ([1]; mesotrione 420 g ai/ha),Classification and statistics of the grade of pesticide damage Grade 0 ([1]; mesotrione 420 g ai/ha),Classification and statistics of the grade of pesticide damage Grade 1 ([1]; mesotrione 420 g ai/ha),Classification and statistics of the grade of pesticide damage Grade 2 ([1]; mesotrione 420 g ai/ha),Classification and statistics of the grade of pesticide damage Grade 3 ([1]; mesotrione 420 g ai/ha),Resistance evaluation ([2]; isoxaflutole 140 g ai/ha),Scores ([2]; isoxaflutole 140 g ai/ha),Classification and statistics of the grade of pesticide damage Grade 0 ([2]; isoxaflutole 140 g ai/ha),Classification and statistics of the grade of pesticide damage Grade 1 ([2]; isoxaflutole 140 g ai/ha),Classification and statistics of the grade of pesticide damage Grade 2 ([2]; isoxaflutole 140 g ai/ha),Classification and statistics of the grade of pesticide damage Grade 3 ([2]; isoxaflutole 140 g ai/ha),Resistance evaluation ([2]; isoxaflutole 280 g ai/ha),Scores ([2]; isoxaflutole 280 g ai/ha),further results
"AsHPPDm-F415W-02: nucleotide sequence encoding Avena sativa HPPD with F415W; vector DBN11791 (nucleic acid, AsHPPDm-F415W-02 Nucleotide Sequence, vector DBN11791) DNA: ATGCCACCTACTCCAGCTACAGCTACTGGTGCTGCTGCTGCTGCCGTTACTCCTGAGCACGCTGCCAGGTCATTCCCCAGGGTGGTTCGCGTGAACCCCAGATCTGATAGGTTCCCAGTTCTGAGCTTCCACCATGTTGAGCTGTGGTGCGCTGATGCTGCTTCTGCTGCTGGCAGGTTCTCTTTCGCTCTTGGTGCTCCACTCGCTGCTAGATCTGATCTGTCTACAGGAAATAGCGCTCATGCCTCACTCCTGCTTCGCTCAGGTGCTTTGGCCTTCCTCTTCACCGCTCCATATGCTCCCCCACCTCAGGAGGCTGCTACTGCTGCTGCTACAGCCTCCATTCCAAGCTTCTCAGCTGATGCCGCTAGAACCTTCGCTGCTGCTCATGGACTTGCCGTGAGGTCTGTTGGTGTTCGCGTGGCTGATGCTGCTGAGGCTTTCAGAGTTTCCGTTGCCGGCGGAGCTAGGCCAGCTTTCGCTCCTGCTGATTTGGGACATGGTTTCGGCCTGGCTGAGGTTGAGCTTTACGGTGACGTGGTTCTCCGCTTCGTGTCTTACCCAGATGAGACTGACCTGCCTTTCCTTCCCGGCTTCGAGAGAGTTTCCTCTCCTGGTGCCGTGGATTACGGCCTGACAAGGTTCGACCACGTGGTTGGAAACGTTCCCGAGATGGCTCCAGTGATCGATTACATGAAGGGCTTCCTTGGATTCCATGAGTTCGCCGAGTTCACTGCTGAGGACGTGGGAACCACTGAGTCCGGTTTGAACTCTGTGGTTCTCGCCAACAATTCTGAGGCTGTTTTGCTCCCTCTGAATGAGCCTGTGCATGGAACCAAGAGGAGAAGCCAGATTCAAACTTACCTGGAGTACCACGGTGGCCCTGGAGTTCAGCATATCGCCCTTGCTTCTAATGATGTGTTGCGCACACTCAGAGAGATGCGCGCCAGAACCCCCATGGGAGGTTTCGAGTTCATGGCCCCACCACAGGCTAAGTACTACGAGGGCGTTAGAAGGATTGCTGGAGACGTGTTGAGCGAGGAGCAGATCAAGGAGTGCCAAGAGCTGGGTGTTCTTGTGGATAGGGATGACCAGGGCGTTCTGCTTCAAATTTTCACTAAGCCAGTGGGCGACCGCCCTACATTCTTCCTTGAGATGATTCAAAGAATCGGCTGCATGGAGAAGGATGAGGTTGGACAGGAGTACCAAAAGGGCGGATGCGGTGGCTTCGGAAAGGGTAACTGGAGCGAGTTGTTCAAGTCAATCGAGGACTACGAGAAGAGCCTCGAGGTGAAGCAGTCAGTGGTTGCCCAAAAGTCCTGA",Non-resistant,81,0,0,9,7,Non-resistant,100,0,0,0,16,Moderately,31,5,7,4,0,Poorly,63,Classification and statistics of the grade of pesticide damage Grade 0 ([2]; isoxaflutole 280 g ai/ha): 0; Classification and statistics of the grade of pesticide damage Grade 1 ([2]; isoxaflutole 280 g ai/ha): 2; Classification and statistics of the grade of pesticide damage Grade 2 ([2]; isoxaflutole 280 g ai/ha): 14; Classification and statistics of the grade of pesticide damage Grade 3 ([2]; isoxaflutole 280 g ai/ha): 0
"AsHPPDm-F372A-F415W-02: nucleotide sequence encoding Avena sativa HPPD with F372A+F415W; vector DBN11792 (nucleic acid, AsHPPDm-F372A-F415W-02 Nucleotide Sequence, vector DBN11792) DNA: ATGCCACCTACTCCAGCTACAGCTACTGGTGCTGCTGCTGCTGCCGTTACTCCTGAGCACGCTGCCAGGTCATTCCCCAGGGTGGTTCGCGTGAACCCCAGATCTGATAGGTTCCCAGTTCTGAGCTTCCACCATGTTGAGCTGTGGTGCGCTGATGCTGCTTCTGCTGCTGGCAGGTTCTCTTTCGCTCTTGGTGCTCCACTCGCTGCTAGATCTGATCTGTCTACAGGAAATAGCGCTCATGCCTCACTCCTGCTTCGCTCAGGTGCTTTGGCCTTCCTCTTCACCGCTCCATATGCTCCCCCACCTCAGGAGGCTGCTACTGCTGCTGCTACAGCCTCCATTCCAAGCTTCTCAGCTGATGCCGCTAGAACCTTCGCTGCTGCTCATGGACTTGCCGTGAGGTCTGTTGGTGTTCGCGTGGCTGATGCTGCTGAGGCTTTCAGAGTTTCCGTTGCCGGCGGAGCTAGGCCAGCTTTCGCTCCTGCTGATTTGGGACATGGTTTCGGCCTGGCTGAGGTTGAGCTTTACGGTGACGTGGTTCTCCGCTTCGTGTCTTACCCAGATGAGACTGACCTGCCTTTCCTTCCCGGCTTCGAGAGAGTTTCCTCTCCTGGTGCCGTGGATTACGGCCTGACAAGGTTCGACCACGTGGTTGGAAACGTTCCCGAGATGGCTCCAGTGATCGATTACATGAAGGGCTTCCTTGGATTCCATGAGTTCGCCGAGTTCACTGCTGAGGACGTGGGAACCACTGAGTCCGGTTTGAACTCTGTGGTTCTCGCCAACAATTCTGAGGCTGTTTTGCTCCCTCTGAATGAGCCTGTGCATGGAACCAAGAGGAGAAGCCAGATTCAAACTTACCTGGAGTACCACGGTGGCCCTGGAGTTCAGCATATCGCCCTTGCTTCTAATGATGTGTTGCGCACACTCAGAGAGATGCGCGCCAGAACCCCCATGGGAGGTTTCGAGTTCATGGCCCCACCACAGGCTAAGTACTACGAGGGCGTTAGAAGGATTGCTGGAGACGTGTTGAGCGAGGAGCAGATCAAGGAGTGCCAAGAGCTGGGTGTTCTTGTGGATAGGGATGACCAGGGCGTTCTGCTTCAAATTGCCACTAAGCCAGTGGGCGACCGCCCTACATTCTTCCTTGAGATGATTCAAAGAATCGGCTGCATGGAGAAGGATGAGGTTGGACAGGAGTACCAAAAGGGCGGATGCGGTGGCTTCGGAAAGGGTAACTGGAGCGAGTTGTTCAAGTCAATCGAGGACTACGAGAAGAGCCTCGAGGTGAAGCAGTCAGTGGTTGCCCAAAAGTCCTGA",Moderately,31,6,6,3,1,Poorly resistant,50,0,8,8,0,Moderately,31,5,7,4,0,Poorly,63,Classification and statistics of the grade of pesticide damage Grade 0 ([2]; isoxaflutole 280 g ai/ha): 0; Classification and statistics of the grade of pesticide damage Grade 1 ([2]; isoxaflutole 280 g ai/ha): 3; Classification and statistics of the grade of pesticide damage Grade 2 ([2]; isoxaflutole 280 g ai/ha): 12; Classification and statistics of the grade of pesticide damage Grade 3 ([2]; isoxaflutole 280 g ai/ha): 1

# — patent US20250043302A1, “MUTATED HYDROXYPHENYLPYRUVATE DIOXYGENASE POLYPEPTIDE, AND CODING GENE AND USE THEREOF” (BEIJING DABEINONG BIOTECHNOLOGY CO., LTD., priority 2021, published 2025)
